Data taken from the supplement of paper PMC9112550, “Optimization of the antimicrobial peptide Bac7 by deep mutational scanning” (BMC Biology, 2022).

Test system: Escherichia coli TOP10
Assay: shrunken log2 fold change of peptide-encoding DNA abundance (4.5 h post-induction vs induction); higher = less antimicrobial activity (less host growth inhibition)
Details: time post-induction: 4.5 h; library: site-saturation at positions 5, 18, 19, 20
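Also: peptides expressed intracellularly from a pBAD plasmid library in pooled LB shake-flask culture, induced with 0.3% L-arabinose, DNA abundance read by NGS, three biological replicates, DESeq2 with apeglm shrinkage.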

RRIRNRPPRLPRPRPRPGNGPRP
shrunken log2 fold change: -0.462

RRIRMRPPRLPRPRPRPYQVPRP
shrunken log2 fold change: -0.393

RRIRNRPPRLPRPRPRPPWPPRP
shrunken log2 fold change: 0.387

RRIRWRPPRLPRPRPRPDNIPRP
shrunken log2 fold change: -0.12

RRIRKRPPRLPRPRPRPMCSPRP
shrunken log2 fold change: -0.0421

RRIRHRPPRLPRPRPRPAHAPRP
shrunken log2 fold change: -0.0771

RRIRKRPPRLPRPRPRPFHWPRP
shrunken log2 fold change: 0.111

RRIRCRPPRLPRPRPRPECSPRP
shrunken log2 fold change: 0.231

RRIRDRPPRLPRPRPRPISPPRP
shrunken log2 fold change: -0.036

RRIRHRPPRLPRPRPRPVDAPRP
shrunken log2 fold change: 0.131

RRIRCRPPRLPRPRPRPVYTPRP
shrunken log2 fold change: -0.222

RRIRGRPPRLPRPRPRPLWQPRP
shrunken log2 fold change: 0.766

RRIRARPPRLPRPRPRPAVEPRP
shrunken log2 fold change: 0.666

RRIRIRPPRLPRPRPRPPRAPRP
shrunken log2 fold change: 0.417

RRIRIRPPRLPRPRPRPTYEPRP
shrunken log2 fold change: -0.458

RRIRCRPPRLPRPRPRPGMIPRP
shrunken log2 fold change: -0.0447

RRIRHRPPRLPRPRPRPFNTPRP
shrunken log2 fold change: -1.18

RRIRKRPPRLPRPRPRPQKYPRP
shrunken log2 fold change: -0.184

RRIRYRPPRLPRPRPRPHDYPRP
shrunken log2 fold change: -0.119

RRIRCRPPRLPRPRPRPNFIPRP
shrunken log2 fold change: -0.616

RRIRSRPPRLPRPRPRPNAIPRP
shrunken log2 fold change: 0.235

RRIRLRPPRLPRPRPRPYFFPRP
shrunken log2 fold change: -0.45

RRIRERPPRLPRPRPRPNKAPRP
shrunken log2 fold change: 0.12

RRIRQRPPRLPRPRPRPCDVPRP
shrunken log2 fold change: -0.15

RRIRGRPPRLPRPRPRPYMVPRP
shrunken log2 fold change: -0.296

RRIRKRPPRLPRPRPRPKMGPRP
shrunken log2 fold change: 0.0837

RRIRCRPPRLPRPRPRPVASPRP
shrunken log2 fold change: 0.149

RRIRSRPPRLPRPRPRPTGLPRP
shrunken log2 fold change: 0.127

RRIRMRPPRLPRPRPRPIRVPRP
shrunken log2 fold change: 0.335

RRIRARPPRLPRPRPRPWNGPRP
shrunken log2 fold change: 0.0566

RRIRTRPPRLPRPRPRPSSNPRP
shrunken log2 fold change: -0.589

RRIRERPPRLPRPRPRPHQTPRP
shrunken log2 fold change: -0.0225

RRIRLRPPRLPRPRPRPWSLPRP
shrunken log2 fold change: -0.195

RRIRIRPPRLPRPRPRPMNHPRP
shrunken log2 fold change: -0.348

RRIRQRPPRLPRPRPRPEQCPRP
shrunken log2 fold change: -0.0442

RRIRARPPRLPRPRPRPQWAPRP
shrunken log2 fold change: 0.156

RRIRPRPPRLPRPRPRPMPWPRP
shrunken log2 fold change: 0.215

RRIRPRPPRLPRPRPRPFANPRP
shrunken log2 fold change: -0.0686

RRIRQRPPRLPRPRPRPHCNPRP
shrunken log2 fold change: -0.11

RRIRGRPPRLPRPRPRPPYNPRP
shrunken log2 fold change: -0.163

RRIRPRPPRLPRPRPRPNKNPRP
shrunken log2 fold change: -0.24

RRIRSRPPRLPRPRPRPTMKPRP
shrunken log2 fold change: -0.128

RRIRGRPPRLPRPRPRPTFHPRP
shrunken log2 fold change: 0.366

RRIRKRPPRLPRPRPRPNEGPRP
shrunken log2 fold change: 0.0728

RRIRHRPPRLPRPRPRPSNMPRP
shrunken log2 fold change: -1.48

RRIRRRPPRLPRPRPRPQPNPRP
shrunken log2 fold change: 0.355

RRIRNRPPRLPRPRPRPPAPPRP
shrunken log2 fold change: 0.78

RRIRIRPPRLPRPRPRPDPNPRP
shrunken log2 fold change: -0.546

RRIRARPPRLPRPRPRPKHKPRP
shrunken log2 fold change: 0.172

RRIRQRPPRLPRPRPRPEGMPRP
shrunken log2 fold change: 0.13

RRIRERPPRLPRPRPRPTGQPRP
shrunken log2 fold change: -0.0359

RRIRRRPPRLPRPRPRPWWGPRP
shrunken log2 fold change: 0.288

RRIRMRPPRLPRPRPRPFKIPRP
shrunken log2 fold change: -0.0716

RRIRARPPRLPRPRPRPQGGPRP
shrunken log2 fold change: 0.499

RRIRVRPPRLPRPRPRPQDVPRP
shrunken log2 fold change: -0.033

RRIRCRPPRLPRPRPRPLLWPRP
shrunken log2 fold change: 0.671

RRIRGRPPRLPRPRPRPYPKPRP
shrunken log2 fold change: 0.161

RRIRLRPPRLPRPRPRPYTPPRP
shrunken log2 fold change: -0.484

RRIRVRPPRLPRPRPRPFSKPRP
shrunken log2 fold change: -0.138

RRIRNRPPRLPRPRPRPPLYPRP
shrunken log2 fold change: -0.101

RRIRIRPPRLPRPRPRPHQRPRP
shrunken log2 fold change: -0.137

RRIRNRPPRLPRPRPRPHCMPRP
shrunken log2 fold change: -0.251

RRIRKRPPRLPRPRPRPIIDPRP
shrunken log2 fold change: -0.139

RRIRIRPPRLPRPRPRPMCFPRP
shrunken log2 fold change: -0.343

RRIRKRPPRLPRPRPRPAEDPRP
shrunken log2 fold change: 1.33

RRIRMRPPRLPRPRPRPYVVPRP
shrunken log2 fold change: 0.00957

RRIRIRPPRLPRPRPRPVWAPRP
shrunken log2 fold change: -0.0187

RRIRKRPPRLPRPRPRPTAWPRP
shrunken log2 fold change: 1.13

RRIRTRPPRLPRPRPRPYKGPRP
shrunken log2 fold change: -0.0116

RRIRGRPPRLPRPRPRPKLWPRP
shrunken log2 fold change: 0.896

RRIRERPPRLPRPRPRPRHHPRP
shrunken log2 fold change: -0.0796

RRIRWRPPRLPRPRPRPGFYPRP
shrunken log2 fold change: 0.0692

RRIRMRPPRLPRPRPRPPFTPRP
shrunken log2 fold change: 0.309

RRIRKRPPRLPRPRPRPYNLPRP
shrunken log2 fold change: -0.119

RRIRPRPPRLPRPRPRPMHWPRP
shrunken log2 fold change: 0.335

RRIRYRPPRLPRPRPRPALSPRP
shrunken log2 fold change: -0.0367

RRIRTRPPRLPRPRPRPCHHPRP
shrunken log2 fold change: -0.0688

RRIRCRPPRLPRPRPRPIKEPRP
shrunken log2 fold change: -0.0741

RRIRRRPPRLPRPRPRPACGPRP
shrunken log2 fold change: 0.429

RRIRCRPPRLPRPRPRPTLVPRP
shrunken log2 fold change: 0.12

RRIRDRPPRLPRPRPRPHRMPRP
shrunken log2 fold change: 0.0707

RRIRIRPPRLPRPRPRPPACPRP
shrunken log2 fold change: 0.498

RRIRHRPPRLPRPRPRPREPPRP
shrunken log2 fold change: 0.773

RRIRKRPPRLPRPRPRPENRPRP
shrunken log2 fold change: 0.246

RRIRRRPPRLPRPRPRPWPNPRP
shrunken log2 fold change: -0.0193

RRIRPRPPRLPRPRPRPMQDPRP
shrunken log2 fold change: 0.0218

RRIRMRPPRLPRPRPRPVMAPRP
shrunken log2 fold change: 0.266

RRIRSRPPRLPRPRPRPQMWPRP
shrunken log2 fold change: 0.0996

RRIRQRPPRLPRPRPRPFGAPRP
shrunken log2 fold change: -0.0476

RRIRGRPPRLPRPRPRPAVHPRP
shrunken log2 fold change: 0.536

RRIRIRPPRLPRPRPRPSRCPRP
shrunken log2 fold change: -0.174

RRIRRRPPRLPRPRPRPANPPRP
shrunken log2 fold change: 0.364

RRIRWRPPRLPRPRPRPAFKPRP
shrunken log2 fold change: -0.00397

RRIRVRPPRLPRPRPRPKMEPRP
shrunken log2 fold change: -0.0457

RRIRFRPPRLPRPRPRPGQEPRP
shrunken log2 fold change: -0.0664

RRIRNRPPRLPRPRPRPGHHPRP
shrunken log2 fold change: -0.00875

RRIRMRPPRLPRPRPRPSSCPRP
shrunken log2 fold change: 0.112

RRIRWRPPRLPRPRPRPYHCPRP
shrunken log2 fold change: -0.276

RRIRGRPPRLPRPRPRPHSPPRP
shrunken log2 fold change: 0.289

RRIRHRPPRLPRPRPRPNSLPRP
shrunken log2 fold change: -0.0817

RRIRRRPPRLPRPRPRPVRFPRP
shrunken log2 fold change: 0.632

RRIRHRPPRLPRPRPRPSPVPRP
shrunken log2 fold change: -0.0462

RRIRFRPPRLPRPRPRPDRCPRP
shrunken log2 fold change: -0.208

RRIRGRPPRLPRPRPRPGHRPRP
shrunken log2 fold change: 0.263

RRIRCRPPRLPRPRPRPIPDPRP
shrunken log2 fold change: 0.106

RRIRARPPRLPRPRPRPKSLPRP
shrunken log2 fold change: -0.109

RRIRNRPPRLPRPRPRPIIFPRP
shrunken log2 fold change: -1.03

RRIRVRPPRLPRPRPRPKIRPRP
shrunken log2 fold change: 0.161

RRIRMRPPRLPRPRPRPTSCPRP
shrunken log2 fold change: 0.415
